Source: IntAct's records for PubMed 32296183

Key:
[1] = biological target: ergi3_human ERGIC3 (UniProt Q9Y282)
[2] = biological target: T1, crtp1_human CYSRT1 (UniProt A8MQ03)
T1 sequence: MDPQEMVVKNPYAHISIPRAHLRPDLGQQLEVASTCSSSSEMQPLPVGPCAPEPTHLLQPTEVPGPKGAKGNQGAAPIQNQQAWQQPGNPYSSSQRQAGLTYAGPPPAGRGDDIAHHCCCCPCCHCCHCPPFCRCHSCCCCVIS

[3] = biological target: T2, cisd2_human CISD2 (UniProt Q8N5K1)
T2 sequence: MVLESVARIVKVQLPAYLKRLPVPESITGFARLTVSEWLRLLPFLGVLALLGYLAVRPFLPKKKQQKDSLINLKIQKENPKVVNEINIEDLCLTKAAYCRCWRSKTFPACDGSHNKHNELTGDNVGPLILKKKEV

[4] = biological target: tm52b_human TMEM52B (UniProt Q4KMG9)
[5] = biological target: T3, tmem9_human TMEM9 (UniProt Q9P0T7)
T3 sequence: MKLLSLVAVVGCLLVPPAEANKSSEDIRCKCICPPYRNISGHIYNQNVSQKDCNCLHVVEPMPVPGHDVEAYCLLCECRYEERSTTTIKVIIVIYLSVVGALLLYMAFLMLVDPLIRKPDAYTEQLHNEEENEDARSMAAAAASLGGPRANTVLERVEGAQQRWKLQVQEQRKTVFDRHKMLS

[6] = biological target: gp152_human GPR152 (UniProt Q8TDT2)
[7] = biological target: cxa5_human GJA5 (UniProt P36382)
[8] = biological target: T4, jam1_human F11R (UniProt Q9Y624)
T4 sequence: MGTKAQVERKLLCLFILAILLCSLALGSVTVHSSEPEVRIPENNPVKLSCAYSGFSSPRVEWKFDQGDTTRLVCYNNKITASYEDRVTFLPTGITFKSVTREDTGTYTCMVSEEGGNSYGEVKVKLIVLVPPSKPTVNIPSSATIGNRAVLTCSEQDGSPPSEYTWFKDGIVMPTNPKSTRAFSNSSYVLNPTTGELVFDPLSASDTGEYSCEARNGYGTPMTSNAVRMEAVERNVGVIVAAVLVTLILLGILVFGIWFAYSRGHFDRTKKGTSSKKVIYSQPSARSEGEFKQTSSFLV

[9] = biological target: bik_human BIK (UniProt Q13323)
[10] = biological target: T5, cplx4_human CPLX4 (UniProt Q7Z7G2)
T5 sequence: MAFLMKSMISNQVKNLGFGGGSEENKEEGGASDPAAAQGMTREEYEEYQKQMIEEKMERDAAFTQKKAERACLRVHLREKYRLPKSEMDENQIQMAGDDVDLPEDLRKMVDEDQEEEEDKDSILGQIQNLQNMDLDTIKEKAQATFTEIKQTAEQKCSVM

[11] = biological target: T6, amgo1_human AMIGO1 (UniProt Q86WK6)
T6 sequence: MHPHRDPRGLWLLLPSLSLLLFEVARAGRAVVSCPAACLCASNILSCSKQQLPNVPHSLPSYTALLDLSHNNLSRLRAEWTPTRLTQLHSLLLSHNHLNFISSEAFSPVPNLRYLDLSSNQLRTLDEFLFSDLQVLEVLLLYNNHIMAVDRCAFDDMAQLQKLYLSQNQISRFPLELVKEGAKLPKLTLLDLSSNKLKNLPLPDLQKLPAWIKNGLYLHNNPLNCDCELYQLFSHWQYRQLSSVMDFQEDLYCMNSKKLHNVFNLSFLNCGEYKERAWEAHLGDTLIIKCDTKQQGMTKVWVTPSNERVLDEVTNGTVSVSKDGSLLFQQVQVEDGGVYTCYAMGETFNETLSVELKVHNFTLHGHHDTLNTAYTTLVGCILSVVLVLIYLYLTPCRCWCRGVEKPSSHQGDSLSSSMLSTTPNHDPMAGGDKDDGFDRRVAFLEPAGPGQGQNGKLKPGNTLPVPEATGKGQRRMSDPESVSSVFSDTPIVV

[12] = biological target: comt_human COMT (UniProt P21964)
[13] = biological target: T7, ssmm1_human SSMEM1 (UniProt Q8WWF3)
T7 sequence: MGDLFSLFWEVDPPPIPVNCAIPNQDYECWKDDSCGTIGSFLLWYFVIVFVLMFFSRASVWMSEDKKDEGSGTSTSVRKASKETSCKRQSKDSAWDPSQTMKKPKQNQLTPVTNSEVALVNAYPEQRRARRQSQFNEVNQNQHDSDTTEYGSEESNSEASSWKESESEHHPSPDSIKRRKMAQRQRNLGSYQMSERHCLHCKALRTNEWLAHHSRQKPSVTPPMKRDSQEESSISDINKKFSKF

[14] = biological target: T8, lrc4c_human LRRC4C (UniProt Q9HCJ2)
T8 sequence: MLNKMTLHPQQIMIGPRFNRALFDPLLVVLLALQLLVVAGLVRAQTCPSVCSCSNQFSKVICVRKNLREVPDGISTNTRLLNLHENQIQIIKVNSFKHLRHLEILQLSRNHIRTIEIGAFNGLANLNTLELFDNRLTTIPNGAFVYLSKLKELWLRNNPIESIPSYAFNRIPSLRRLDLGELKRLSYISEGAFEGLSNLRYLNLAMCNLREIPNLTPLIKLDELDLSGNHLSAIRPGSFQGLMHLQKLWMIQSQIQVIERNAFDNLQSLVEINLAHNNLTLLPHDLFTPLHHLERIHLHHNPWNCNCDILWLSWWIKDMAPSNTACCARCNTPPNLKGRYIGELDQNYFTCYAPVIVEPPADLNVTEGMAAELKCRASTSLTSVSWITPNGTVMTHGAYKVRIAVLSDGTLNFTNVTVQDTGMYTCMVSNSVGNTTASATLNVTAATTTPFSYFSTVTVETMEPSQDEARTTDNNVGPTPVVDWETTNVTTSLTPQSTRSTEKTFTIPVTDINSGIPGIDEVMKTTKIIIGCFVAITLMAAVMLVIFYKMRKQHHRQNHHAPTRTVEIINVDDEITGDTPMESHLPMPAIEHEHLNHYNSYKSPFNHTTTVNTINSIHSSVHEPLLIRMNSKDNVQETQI

[15] = biological target: T9, cld7_human CLDN7 (UniProt O95471)
T9 sequence: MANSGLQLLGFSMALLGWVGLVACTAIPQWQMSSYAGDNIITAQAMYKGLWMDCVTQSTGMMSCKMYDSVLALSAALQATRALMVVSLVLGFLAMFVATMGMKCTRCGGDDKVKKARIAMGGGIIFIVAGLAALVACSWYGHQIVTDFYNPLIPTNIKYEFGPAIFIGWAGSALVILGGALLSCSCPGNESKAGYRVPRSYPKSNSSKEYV

Substance: Acyltransferase PGAP2 (Homo sapiens) (from UniProt Q9UHJ9-5) T160I
- effect of a mutation on the interaction [1]: with no effect
- effect of a mutation on the interaction [2]: disrupting interaction strength
- effect of a mutation on the interaction [3]: with no effect
- effect of a mutation on the interaction [4]: disrupting interaction strength
- effect of a mutation on the interaction [5]: with no effect
- effect of a mutation on the interaction [6]: with no effect
- effect of a mutation on the interaction [7]: with no effect
- effect of a mutation on the interaction [8]: disrupting interaction strength
- effect of a mutation on the interaction [9]: with no effect
- effect of a mutation on the interaction [10]: with no effect
- effect of a mutation on the interaction [11]: disrupting interaction strength
- effect of a mutation on the interaction [12]: with no effect
- effect of a mutation on the interaction [13]: with no effect
- effect of a mutation on the interaction [14]: with no effect
- effect of a mutation on the interaction [15]: disrupting interaction strength
